The values that follow come from patent US20110034396A1.

What all share (experiment): cell-based or functional assay
Test [1] has as its target bovine serum albumin (bovine) (UniProt P02769).
A further test has as its target collagen type IV.
The next test has as its target fibronectin.

UniProt P02769, sequence (P02769 25-607 limits assumed): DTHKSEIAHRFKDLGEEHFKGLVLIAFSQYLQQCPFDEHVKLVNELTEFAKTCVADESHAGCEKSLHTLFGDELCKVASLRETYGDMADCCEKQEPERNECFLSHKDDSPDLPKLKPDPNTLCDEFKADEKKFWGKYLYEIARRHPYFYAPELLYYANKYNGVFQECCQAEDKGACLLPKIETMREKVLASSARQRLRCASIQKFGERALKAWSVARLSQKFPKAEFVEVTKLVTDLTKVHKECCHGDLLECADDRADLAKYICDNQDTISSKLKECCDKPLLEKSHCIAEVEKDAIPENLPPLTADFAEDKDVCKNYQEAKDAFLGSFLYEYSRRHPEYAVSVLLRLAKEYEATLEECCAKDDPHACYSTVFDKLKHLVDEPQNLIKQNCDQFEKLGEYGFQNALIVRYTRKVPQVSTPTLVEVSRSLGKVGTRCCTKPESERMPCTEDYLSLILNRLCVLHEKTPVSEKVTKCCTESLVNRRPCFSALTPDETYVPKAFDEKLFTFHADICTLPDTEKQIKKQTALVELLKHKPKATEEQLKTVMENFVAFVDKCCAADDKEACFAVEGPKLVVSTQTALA

B1: saratin (protein)
chain: EEREDCWTFYANRKYTDFDKSFKKSSDLDECKKTCFKTEYCYIVFEDTVNKECYYNVVDGEELDQEKFVVDENFTENYLTDCEGKDAGNAAGTGDESDEVDED
In test [1], B1 displayed an IC50 of saratin inhibition of MCP-1-induced human monocyte migration through filters coated with 1 mg/mL BSA (Boyden chamber) of 37 nM; a Saratin IC50, MCP-1-induced human monocyte migration through filters coated with BSA, coating conc. 1.0 as the table prints it (the text gives 1.1 nM for 0.01 mg/mL BSA) (Boyden chamber) of 1.1 nM; a Saratin IC50, MIP-1alpha-induced human T lymphocyte migration through filters coated with BSA, coating conc. 1.0 (Boyden chamber) of 185 nM. For the same molecule, in the test with collagen type IV, the Saratin IC50, MCP-1-induced human monocyte migration through filters coated with Collagen IV, coating conc. 0.01 (Boyden chamber) is 0.172 nM; the Saratin IC50, MCP-1-induced human monocyte migration through filters coated with Collagen IV, coating conc. 1.0 (Boyden chamber) worked out at 0.0623 nM; the Saratin IC50, MIP-1alpha-induced human T lymphocyte migration through filters coated with Collagen IV, coating conc. 0.01 (Boyden chamber) was found to be 6.86 nM; the Saratin IC50, MIP-1alpha-induced human T lymphocyte migration through filters coated with Collagen IV, coating conc. 1.0 (Boyden chamber) was 0.0079 nM. Also, in the test with fibronectin, the Saratin IC50, MCP-1-induced human monocyte migration through filters coated with Fibronectin, coating conc. 1.0 (Boyden chamber) was found to be 19.4 nM and the Saratin IC50, MIP-1alpha-induced human T lymphocyte migration through filters coated with Fibronectin, coating conc. 1.0 (Boyden chamber) worked out at 3.69 nM.
